Source: publication PMC2756588

The binders below were run against T1, Abp1, P15891 (assay: SPOT array). Details: median of control spots 935.
T1 sequence (P15891 535-592, looked up): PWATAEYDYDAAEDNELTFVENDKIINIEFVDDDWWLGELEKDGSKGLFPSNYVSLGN

Compared with LLGRKRPVMERVVDI, SRYRRPLTLLLLKPF is higher in SPOT intensity: 28 for the first, 37 for the second.

With FFRRSELYLPNSSKA the SPOT intensity was 22.

What follows are binders tested against T2, Bbc1, P47068 (assay: SPOT array). Details: median of control spots 796.
T2 sequence (P47068 1-78, looked up): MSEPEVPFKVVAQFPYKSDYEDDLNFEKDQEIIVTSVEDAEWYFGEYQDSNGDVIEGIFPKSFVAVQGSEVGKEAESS

First: LLGRKRPVMERVVDI
Second: SRYRRPLTLLLLKPF
The SPOT intensity of the first is lower: 1 for the first, 140 for the second.

In the case of FFRRSELYLPNSSKA, the SPOT intensity is reported as 19.

The binders below were run against Bem1-1, P29366 (assay: SPOT array). Details: median of control spots 4282.
Sequence of Bem1-1, P29366 (P29366 55-141): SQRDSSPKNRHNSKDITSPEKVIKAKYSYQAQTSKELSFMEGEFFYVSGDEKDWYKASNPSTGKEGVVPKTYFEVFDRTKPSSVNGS

LLGRKRPVMERVVDI and SRYRRPLTLLLLKPF are the same in SPOT intensity: 0 for the first, 0 for the second.

In the case of FFRRSELYLPNSSKA, the SPOT intensity is reported as 3.

Each binder was assayed against Bem1-2, P29366 (assay: SPOT array). Details: median of control spots 4347.
Sequence of Bem1-2, P29366 (P29366 139-227): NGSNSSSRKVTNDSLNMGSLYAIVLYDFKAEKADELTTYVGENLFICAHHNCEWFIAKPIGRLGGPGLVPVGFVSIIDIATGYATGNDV

First: LLGRKRPVMERVVDI
Second: SRYRRPLTLLLLKPF
The SPOT intensity of the first is lower: 0 for the first, 10 for the second.

FFRRSELYLPNSSKA was tested, and the SPOT intensity was 15.

These binders were tested against T3, Boi1, P38041 (assay: SPOT array). Details: median of control spots 1162.
T3 sequence (P38041 1-86, looked up): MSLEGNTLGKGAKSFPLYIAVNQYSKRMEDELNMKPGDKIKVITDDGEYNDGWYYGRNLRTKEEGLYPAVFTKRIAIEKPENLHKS

First: LLGRKRPVMERVVDI
Second: SRYRRPLTLLLLKPF
The SPOT intensity of the first is lower: 0 for the first, 16 for the second.

In the case of FFRRSELYLPNSSKA, the SPOT intensity is reported as 3.

What follows are binders tested against T4, Boi2, P39969 (assay: SPOT array). Details: median of control spots 1161.
T4 sequence (P39969 32-116, looked up): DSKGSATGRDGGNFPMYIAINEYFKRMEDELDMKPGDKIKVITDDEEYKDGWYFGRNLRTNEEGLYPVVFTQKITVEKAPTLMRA

Going from LLGRKRPVMERVVDI to SRYRRPLTLLLLKPF, the SPOT intensity falls from 1 to 0.

With FFRRSELYLPNSSKA the SPOT intensity was 0.

What follows are binders tested against T5, Bud14, P27637 (assay: SPOT array). Details: median of control spots 956.
T5 sequence (P27637 247-328, looked up): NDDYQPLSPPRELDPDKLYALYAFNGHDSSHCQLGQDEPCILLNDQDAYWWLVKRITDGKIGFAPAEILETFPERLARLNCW

Going from LLGRKRPVMERVVDI to SRYRRPLTLLLLKPF, the SPOT intensity rises from 3 to 15.

With FFRRSELYLPNSSKA the SPOT intensity was 10.

What follows are binders tested against T6, Bzz1-1, P38822 (assay: SPOT array). Details: median of control spots 4446.
T6 sequence (P38822 478-572, looked up): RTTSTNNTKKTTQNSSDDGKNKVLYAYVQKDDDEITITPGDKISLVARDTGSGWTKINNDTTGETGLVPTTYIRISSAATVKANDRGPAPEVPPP

LLGRKRPVMERVVDI and SRYRRPLTLLLLKPF are the same in SPOT intensity: 0 for the first, 0 for the second.

Work on FFRRSELYLPNSSKA yielded an SPOT intensity of 1.

These binders were tested against T7, Bzz1-2, P38822 (assay: SPOT array). Details: median of control spots 4538.
T7 sequence (P38822 568-633, looked up): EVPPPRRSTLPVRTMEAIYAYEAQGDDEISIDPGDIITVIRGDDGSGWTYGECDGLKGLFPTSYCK

LLGRKRPVMERVVDI and SRYRRPLTLLLLKPF are the same in SPOT intensity: 4 for the first, 4 for the second.

FFRRSELYLPNSSKA was tested, and the SPOT intensity was 5.

Each binder was assayed against T8, Cdc25, P04821 (assay: SPOT array). Details: median of control spots 969.
T8 sequence (P04821 50-136, looked up): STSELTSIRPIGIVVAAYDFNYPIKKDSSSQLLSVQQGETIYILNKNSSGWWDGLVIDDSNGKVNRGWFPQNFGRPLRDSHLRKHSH

First: LLGRKRPVMERVVDI
Second: SRYRRPLTLLLLKPF
The SPOT intensity of the first is lower: 9 for the first, 236 for the second.

In the case of FFRRSELYLPNSSKA, the SPOT intensity is reported as 115.

What follows are binders tested against T9, Cyk3, Q07533 (assay: SPOT array). Details: median of control spots 1451.
T9 sequence (Q07533 1-83, looked up): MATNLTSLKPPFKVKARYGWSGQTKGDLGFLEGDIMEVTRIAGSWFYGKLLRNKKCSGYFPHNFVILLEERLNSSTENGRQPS

First: LLGRKRPVMERVVDI
Second: SRYRRPLTLLLLKPF
The SPOT intensity of the first is lower: 0 for the first, 3 for the second.

For FFRRSELYLPNSSKA, the SPOT intensity was 0.

The binders below were run against T10, Fus1, P11710 (assay: SPOT array). Details: median of control spots 1200.
T10 sequence (P11710 432-512, looked up): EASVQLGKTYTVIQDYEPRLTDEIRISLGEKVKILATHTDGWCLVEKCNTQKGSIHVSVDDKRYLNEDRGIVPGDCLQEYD

Going from LLGRKRPVMERVVDI to SRYRRPLTLLLLKPF, the SPOT intensity rises from 0 to 15.

With FFRRSELYLPNSSKA the SPOT intensity was 37.

Each binder was assayed against GST (assay: SPOT array). Details: median of control spots 978.

LLGRKRPVMERVVDI and SRYRRPLTLLLLKPF are the same in SPOT intensity: 0 for the first, 0 for the second.

FFRRSELYLPNSSKA showed an SPOT intensity of 0.

The binders below were run against T11, Hof1, Q05080 (assay: SPOT array). Details: median of control spots 4086.
T11 sequence (Q05080 590-669, looked up): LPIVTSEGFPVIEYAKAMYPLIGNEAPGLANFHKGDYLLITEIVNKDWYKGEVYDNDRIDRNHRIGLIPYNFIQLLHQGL

Going from LLGRKRPVMERVVDI to SRYRRPLTLLLLKPF, the SPOT intensity rises from 0 to 15.

Work on FFRRSELYLPNSSKA yielded an SPOT intensity of 25.

The binders below were run against T12, Hse1, P38753 (assay: SPOT array). Details: median of control spots 1727.
T12 sequence (P38753 208-285, looked up): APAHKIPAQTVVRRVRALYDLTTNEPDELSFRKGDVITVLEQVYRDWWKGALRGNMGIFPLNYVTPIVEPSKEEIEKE

First: LLGRKRPVMERVVDI
Second: SRYRRPLTLLLLKPF
The SPOT intensity of the first is lower: 9 for the first, 15 for the second.

FFRRSELYLPNSSKA showed an SPOT intensity of 43.

Each binder was assayed against T13, Lsb1, P53281 (assay: SPOT array). Details: median of control spots 388.
T13 sequence (P53281 45-122, looked up): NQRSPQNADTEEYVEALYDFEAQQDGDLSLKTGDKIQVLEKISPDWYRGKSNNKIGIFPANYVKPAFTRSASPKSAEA

Going from LLGRKRPVMERVVDI to SRYRRPLTLLLLKPF, the SPOT intensity rises from 4 to 7.

Work on FFRRSELYLPNSSKA yielded an SPOT intensity of 2.

What follows are binders tested against T14, Lsb3, P43603 (assay: SPOT array). Details: median of control spots 406.
T14 sequence (P43603 385-451, looked up): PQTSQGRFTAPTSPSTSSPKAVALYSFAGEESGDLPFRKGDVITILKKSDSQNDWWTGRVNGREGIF

First: LLGRKRPVMERVVDI
Second: SRYRRPLTLLLLKPF
The SPOT intensity of the first is higher: 4 for the first, 2 for the second.

FFRRSELYLPNSSKA was tested, and the SPOT intensity was 0.

What follows are binders tested against T15, Lsb4, P32793 (assay: SPOT array). Details: median of control spots 397.
T15 sequence (P32793 402-468, looked up): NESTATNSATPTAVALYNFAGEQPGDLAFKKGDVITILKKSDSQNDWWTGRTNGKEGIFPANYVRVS

Going from LLGRKRPVMERVVDI to SRYRRPLTLLLLKPF, the SPOT intensity falls from 27 to 2.

FFRRSELYLPNSSKA showed an SPOT intensity of 0.

What follows are binders tested against Myo3, P36006 (assay: SPOT array). Details: median of control spots 468.

Going from LLGRKRPVMERVVDI to SRYRRPLTLLLLKPF, the SPOT intensity falls from 10 to 8.

FFRRSELYLPNSSKA was tested, and the SPOT intensity was 0.

What follows are binders tested against T16, Myo5, Q04439 (assay: SPOT array). Details: median of control spots 471.
T16 sequence (Q04439 1072-1160, looked up): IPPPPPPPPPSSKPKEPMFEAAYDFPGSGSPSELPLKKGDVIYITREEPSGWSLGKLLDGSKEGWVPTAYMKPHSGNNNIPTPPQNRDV

Going from LLGRKRPVMERVVDI to SRYRRPLTLLLLKPF, the SPOT intensity falls from 6 to 0.

FFRRSELYLPNSSKA showed an SPOT intensity of 0.

These binders were tested against T17, Nbp2, Q12163 (assay: SPOT array). Details: median of control spots 357.
T17 sequence (Q12163 103-180, looked up): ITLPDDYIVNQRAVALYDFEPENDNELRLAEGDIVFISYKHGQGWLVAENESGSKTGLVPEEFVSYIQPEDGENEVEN

First: LLGRKRPVMERVVDI
Second: SRYRRPLTLLLLKPF
The SPOT intensity of the first is lower: 0 for the first, 28 for the second.

In the case of FFRRSELYLPNSSKA, the SPOT intensity is reported as 14.

Each binder was assayed against T18, Pex13, P80667 (assay: SPOT array). Details: median of control spots 1341.
T18 sequence (P80667 295-386, looked up): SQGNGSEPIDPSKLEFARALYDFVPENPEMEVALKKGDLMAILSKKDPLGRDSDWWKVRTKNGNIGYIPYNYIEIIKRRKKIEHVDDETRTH

Compared with LLGRKRPVMERVVDI, SRYRRPLTLLLLKPF is lower in SPOT intensity: 110 for the first, 16 for the second.

FFRRSELYLPNSSKA showed an SPOT intensity of 10.

What follows are binders tested against T19, Pin3, Q06449 (assay: SPOT array). Details: median of control spots 2171.
T19 sequence (Q06449 53-122, looked up): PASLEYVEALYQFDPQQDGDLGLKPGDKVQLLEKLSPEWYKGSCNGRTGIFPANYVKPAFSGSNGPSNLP

Compared with LLGRKRPVMERVVDI, SRYRRPLTLLLLKPF is lower in SPOT intensity: 61 for the first, 2 for the second.

Work on FFRRSELYLPNSSKA yielded an SPOT intensity of 1.

These binders were tested against Rvs167, P39743 (assay: SPOT array). Details: median of control spots 2707.
Sequence of Rvs167, P39743 (P39743 419-482): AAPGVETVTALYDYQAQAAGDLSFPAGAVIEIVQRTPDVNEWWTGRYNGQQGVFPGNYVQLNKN

First: LLGRKRPVMERVVDI
Second: SRYRRPLTLLLLKPF
The SPOT intensity of the first is lower: 5 for the first, 7 for the second.

FFRRSELYLPNSSKA showed an SPOT intensity of 5.

These binders were tested against Sho1, P40073 (assay: SPOT array). Details: median of control spots 1148.
Sequence of Sho1, P40073 (P40073 287-367): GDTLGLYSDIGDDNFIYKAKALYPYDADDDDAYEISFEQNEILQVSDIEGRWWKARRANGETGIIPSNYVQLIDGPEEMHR

Compared with LLGRKRPVMERVVDI, SRYRRPLTLLLLKPF is higher in SPOT intensity: 74 for the first, 78 for the second.

Work on FFRRSELYLPNSSKA yielded an SPOT intensity of 62.

Each binder was assayed against T20, Sla1-2, P32790 (assay: SPOT array). Details: median of control spots 712.
T20 sequence (P32790 60-140, looked up): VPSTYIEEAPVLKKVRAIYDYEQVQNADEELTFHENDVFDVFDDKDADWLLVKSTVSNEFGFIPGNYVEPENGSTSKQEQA

Going from LLGRKRPVMERVVDI to SRYRRPLTLLLLKPF, the SPOT intensity falls from 5 to 1.

FFRRSELYLPNSSKA gave an SPOT intensity of 0.

Each binder was assayed against T21, Sla1-3, P32790 (assay: SPOT array). Details: median of control spots 5475.
T21 sequence (P32790 344-424, looked up): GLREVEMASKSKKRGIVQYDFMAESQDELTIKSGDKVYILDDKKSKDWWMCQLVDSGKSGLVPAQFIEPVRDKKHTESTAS

First: LLGRKRPVMERVVDI
Second: SRYRRPLTLLLLKPF
The SPOT intensity of the first is lower: 4 for the first, 15 for the second.

Binder FFRRSELYLPNSSKA has an SPOT intensity of 53.
